Where no end group is shown, it is not given here. [ ]: non-standard residue; d: D form. pY = N[C@@H](Cc1ccc(OP(=O)(O)O)cc1)C(=O)O

The IC50 is the concentration that inhibits the measured activity by half.

The target in assay [1] is T1, recombinant human STAT3 SH2 domain (Homo sapiens, UniProt P40763).
T1 construct: Full-length cDNAs were obtained from a human cDNA library by PCR; Avi-tag (biotinylated in BirA-BL21) (N); made in house; host or cells: Escherichia coli BirA-BL21
In words: AlphaScreen SH2 binding assay, STAT3. The method, then: AlphaScreen assays were performed in a final reaction volume of 25 μL of the assay buffer, containing 10 mM HEPES-NaOH (pH 7.4), 50 mM NaCl, 1 mM EDTA (pH 8.0), 0.1% NP-40, and 10 ng/mL BSA in a 96-well microtiter plate at 25°C. The labeled Phospho-Tyr (pTyr) peptide probe was 5-carboxyfluorescein (FITC)-GpYLPQTV for STAT3, FITC-GpYDKPHVL for STAT1, and FITC-PSpYVNVQN for Grb2. A DMSO solution of BENDA was incubated with 50 nM of each SH2-containing protein for 15 min, 50 nM of the corresponding FITC-pTyr peptide was added, and the mixture was incubated for 90 min. Streptavidin-coated donor beads and anti-FITC acceptor beads were added and incubated for 90 min before the signals were measured with an Envision Xcite plate reader (PerkinElmer Life Sciences, Waltham, MA, USA).
In general terms: Bead proximity is the source of the signal in Alpha formats.

Assay [2] deals with T2, cellular STAT3 in MDA-MB-468 cells (Homo sapiens, UniProt P40763).
T2 construct: endogenous in cells; host or cells: MDA-MB-468
In words: Pull-down assay using Bio-BENDA, anti-STAT3 immunoprecipitation. The class given is cell-based. The following applies: 50 μM Bio-BENDA, 4 h. The method, then:
MDA-MB-468 cells were treated with biotinylated BENDA (Bio-BENDA) in the presence or absence of an excess amount of free drugs for 4 h and then lysed in PhosphoSafe™ Extraction Reagent (Merck, Darmstadt, Germany). Lysate (200 μL) was precleared with a mixture of Protein G Plus/Protein A Agarose Suspension (EMD Millipore, Billerica, MA, USA) for 1 h at 4°C and protein A and G agarose were removed by centrifugation at 13,000 rpm for 10 min. The lysate (200 μL) was immunoprecipitated with STAT3 antibody (1 μL) overnight at 4°C on a shaker and the immunocomplex was captured by the addition of a Protein G Plus/Protein A Agarose Suspension (30 μL) slurry for 1 h at 4°C. Samples were washed five times with lysis buffer and then boiled four times in SDS-PAGE sample buffer and run on an SDS-PAGE gel. The protein was transferred to a nitrocellulose membrane. The membranes were blocked in 5% skim milk in TBS/0.1% Tween 20. They were then incubated with streptavidin-HRP diluted at 1:2000 in 1.5% skim milk in TBS (pH7.4)/0.1% Tween 20 overnight at 4°C. Immunoblots were developed by using a chemiluminescent substrate.

For assay [3], the target named is T3, cellular STAT1 in MDA-MB-468 cells (Homo sapiens, UniProt P42224).
T3 construct: endogenous in cells; host or cells: MDA-MB-468
The assay is described as follows: Pull-down assay using Bio-BENDA, anti-STAT1 immunoprecipitation. The note with it: 50 μM Bio-BENDA, 4 h. It counts as cell-based.

Assay [4] has as its system MDA-MB-468 cells and MDA-MB-453 cells. Also noted: method as in PMID 26010889. The following applies: cited from earlier work.
Assay [5] addresses T4, mutant recombinant human STAT3, Cys468 to alanine (human, UniProt P40763 1-770, Cys468 to alanine, biotin (Avi-tag; expressed in BirA-BL21 cells induced with 50 μM biotin)).
T4 construct: human STAT3, full-length cDNA, single point mutation by inverse PCR, in modified pET-28a(+); Expression and purification are described for the wild type; also called Cys468 mutant; mutant STAT3 His-Avi-pET28a (+); source: E. coli BirA-BL21, purified (Ni Sepharose, dialysis); not shown: Avi-tag, N-terminal, kept
In words: AlphaScreen or HTRF; 375 nM mutant recombinant STAT3 incubated with 100 μM BENDA in DMSO for 30 min, then the AlphaScreen SH2 binding assay with the phosphotyrosine peptide. The note with it: both partners purified.

The target in assay [6] is T5, mutant recombinant human STAT3, C712A (human, UniProt P40763 1-770, C712A, biotin (Avi-tag; expressed in BirA-BL21 cells induced with 50 μM biotin)).
T5 construct: human STAT3, full-length cDNA, single point mutation by inverse PCR, in modified pET-28a(+); Expression and purification are described for the wild type; also called Cys712 mutant; mutant STAT3 His-Avi-pET28a (+); source: E. coli BirA-BL21, purified (Ni Sepharose, dialysis); not shown: Avi-tag, N-terminal, kept
The description is as above. The note with it: both partners purified.

For assay [7], the target named is T6, mutant recombinant human STAT3, C550A (human, UniProt P40763 1-770, C550A, biotin (Avi-tag; expressed in BirA-BL21 cells induced with 50 μM biotin)).
T6 construct: human STAT3, full-length cDNA, single point mutation by inverse PCR, in modified pET-28a(+); Expression and purification are described for the wild type; also called Cys550 mutant; mutant STAT3 His-Avi-pET28a (+); source: E. coli BirA-BL21, purified (Ni Sepharose, dialysis); not shown: Avi-tag, N-terminal, kept
The description is as above. The note with it: both partners purified.

Assay [8] deals with T7, mutant recombinant human STAT3, Cys687 to alanine (human, UniProt P40763 1-770, Cys687 to alanine, biotin (Avi-tag; expressed in BirA-BL21 cells induced with 50 μM biotin)).
T7 construct: human STAT3, full-length cDNA, single point mutation by inverse PCR, in modified pET-28a(+); Expression and purification are described for the wild type; also called Cys687 mutant; mutant STAT3 His-Avi-pET28a (+); source: E. coli BirA-BL21, purified (Ni Sepharose, dialysis); not shown: Avi-tag, N-terminal, kept
The assay is described as above. The note with it: both partners purified.

For assay [9], the target named is T8, mutant recombinant human STAT3, Cys542 to alanine (human, UniProt P40763 1-770, Cys542 to alanine, biotin (Avi-tag; expressed in BirA-BL21 cells induced with 50 μM biotin)).
T8 construct: human STAT3, full-length cDNA, single point mutation by inverse PCR, in modified pET-28a(+); Expression and purification are described for the wild type; also called Cys542 mutant; mutant STAT3 His-Avi-pET28a (+); source: E. coli BirA-BL21, purified (Ni Sepharose, dialysis); not shown: Avi-tag, N-terminal, kept
The description is as above. The following applies: both partners purified.

The target in assay [10] is T9, recombinant human STAT3 (signal transducer and activator of transcription 3) (human, UniProt P40763 1-770, biotin (Avi-tag; expressed in BirA-BL21 cells induced with 50 μM biotin)).
T9 construct: human STAT3, full-length cDNA from a human cDNA library, cloned into modified pET-28a(+); also called rhSTAT3; wild-type rhSTAT3; source: E. coli BirA-BL21, purified (Ni Sepharose, dialysis); not shown: Avi-tag, N-terminal, kept
In words: AlphaScreen or HTRF; 50 nM SH2-containing protein pre-incubated 15 min with BENDA in DMSO, then 50 nM FITC-pTyr peptide 90 min; streptavidin-coated donor beads and anti-FITC acceptor beads 90 min; 10 mM HEPES-NaOH pH 7.4, 50 mM NaCl, 1 mM EDTA, 0.1% NP-40, 10 ng/mL BSA, 25°C. The following applies: both partners purified.

T8 sequence (P40763 other isoform, or with tags, fused parts or gaps Cys542 to alanine | Cys542 to alanine | mutant): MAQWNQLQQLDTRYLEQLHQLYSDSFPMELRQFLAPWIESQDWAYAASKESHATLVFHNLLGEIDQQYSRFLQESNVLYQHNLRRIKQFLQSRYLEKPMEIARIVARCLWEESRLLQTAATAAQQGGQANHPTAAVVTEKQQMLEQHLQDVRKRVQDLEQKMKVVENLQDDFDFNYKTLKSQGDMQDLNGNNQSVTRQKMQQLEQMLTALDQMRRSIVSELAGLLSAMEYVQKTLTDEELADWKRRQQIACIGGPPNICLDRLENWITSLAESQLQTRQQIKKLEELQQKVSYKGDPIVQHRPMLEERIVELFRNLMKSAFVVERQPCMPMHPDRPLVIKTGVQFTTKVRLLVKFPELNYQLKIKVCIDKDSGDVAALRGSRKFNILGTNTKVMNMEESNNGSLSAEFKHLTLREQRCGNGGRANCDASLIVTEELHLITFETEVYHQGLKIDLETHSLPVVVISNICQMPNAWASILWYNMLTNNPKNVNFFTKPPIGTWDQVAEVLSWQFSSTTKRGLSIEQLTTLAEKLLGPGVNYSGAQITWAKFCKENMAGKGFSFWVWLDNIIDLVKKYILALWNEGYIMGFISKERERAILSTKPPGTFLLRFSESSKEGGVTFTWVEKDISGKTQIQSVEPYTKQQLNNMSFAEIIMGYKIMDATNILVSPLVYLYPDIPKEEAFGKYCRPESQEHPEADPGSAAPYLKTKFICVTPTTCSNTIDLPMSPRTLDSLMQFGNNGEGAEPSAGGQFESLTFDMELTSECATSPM
T7 sequence (P40763 other isoform, or with tags, fused parts or gaps Cys687 to alanine | Cys687 to alanine | mutant): as the sequence (P40763 other isoform, or with tags, fused parts or gaps Cys542 to alanine | Cys542 to alanine | mutant) above, with A542C, C687A counted along it
T6 sequence (P40763 whole entry C550A): as the sequence (P40763 other isoform, or with tags, fused parts or gaps Cys542 to alanine | Cys542 to alanine | mutant) above, with A542C, C550A counted along it
T1 sequence (P40763 whole entry, the tested form may be a part): as the sequence (P40763 other isoform, or with tags, fused parts or gaps Cys542 to alanine | Cys542 to alanine | mutant) above, with A542C counted along it
T9 sequence (P40763 whole entry): as the sequence (P40763 other isoform, or with tags, fused parts or gaps Cys542 to alanine | Cys542 to alanine | mutant) above, with A542C counted along it
T3 sequence (P42224 whole entry): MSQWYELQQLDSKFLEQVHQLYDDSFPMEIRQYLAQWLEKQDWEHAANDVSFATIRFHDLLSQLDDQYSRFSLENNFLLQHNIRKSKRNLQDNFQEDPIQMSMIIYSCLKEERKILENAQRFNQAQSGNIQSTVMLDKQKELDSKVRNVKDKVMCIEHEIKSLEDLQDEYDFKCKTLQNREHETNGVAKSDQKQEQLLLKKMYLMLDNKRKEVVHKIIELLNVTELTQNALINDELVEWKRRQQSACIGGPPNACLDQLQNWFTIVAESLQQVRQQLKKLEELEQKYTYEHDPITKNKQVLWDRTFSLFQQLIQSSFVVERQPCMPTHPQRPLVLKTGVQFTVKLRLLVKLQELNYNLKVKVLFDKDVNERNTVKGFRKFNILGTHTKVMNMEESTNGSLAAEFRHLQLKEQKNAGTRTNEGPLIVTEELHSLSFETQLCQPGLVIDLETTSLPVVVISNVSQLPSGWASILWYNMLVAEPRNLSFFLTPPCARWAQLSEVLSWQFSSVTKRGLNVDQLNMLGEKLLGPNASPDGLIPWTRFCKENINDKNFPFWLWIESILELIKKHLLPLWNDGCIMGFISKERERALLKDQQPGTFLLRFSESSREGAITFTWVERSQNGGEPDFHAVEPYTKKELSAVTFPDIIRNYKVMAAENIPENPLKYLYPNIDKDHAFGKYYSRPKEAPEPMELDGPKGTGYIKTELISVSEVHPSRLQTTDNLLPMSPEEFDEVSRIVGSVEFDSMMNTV
T2 sequence (P40763 2-770 limits assumed): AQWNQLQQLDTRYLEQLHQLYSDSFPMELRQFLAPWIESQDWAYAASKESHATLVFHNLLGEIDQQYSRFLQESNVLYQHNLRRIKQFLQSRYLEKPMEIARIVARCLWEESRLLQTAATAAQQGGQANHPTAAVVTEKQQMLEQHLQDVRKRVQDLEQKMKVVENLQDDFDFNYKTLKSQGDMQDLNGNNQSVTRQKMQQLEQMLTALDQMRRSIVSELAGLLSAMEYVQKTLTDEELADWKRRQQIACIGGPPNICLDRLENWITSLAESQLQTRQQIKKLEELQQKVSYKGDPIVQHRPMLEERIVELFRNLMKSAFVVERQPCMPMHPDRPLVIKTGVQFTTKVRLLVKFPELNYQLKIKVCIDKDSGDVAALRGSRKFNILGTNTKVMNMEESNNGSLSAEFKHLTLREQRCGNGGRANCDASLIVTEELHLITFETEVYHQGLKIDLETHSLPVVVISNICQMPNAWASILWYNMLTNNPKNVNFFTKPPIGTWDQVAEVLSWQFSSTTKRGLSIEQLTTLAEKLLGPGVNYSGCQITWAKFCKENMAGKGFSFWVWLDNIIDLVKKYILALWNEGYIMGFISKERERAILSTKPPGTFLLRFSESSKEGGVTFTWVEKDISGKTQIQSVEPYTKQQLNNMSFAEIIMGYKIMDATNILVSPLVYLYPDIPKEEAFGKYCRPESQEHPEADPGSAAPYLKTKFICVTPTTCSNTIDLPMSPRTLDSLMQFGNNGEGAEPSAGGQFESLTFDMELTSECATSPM
T4 sequence (P40763 other isoform, or with tags, fused parts or gaps Cys468 to alanine | Cys468 to alanine | mutant): as the sequence (P40763 other isoform, or with tags, fused parts or gaps Cys542 to alanine | Cys542 to alanine | mutant) above, with C468A, A542C counted along it
T5 sequence (P40763 whole entry C712A): as the sequence (P40763 other isoform, or with tags, fused parts or gaps Cys542 to alanine | Cys542 to alanine | mutant) above, with A542C, C712A counted along it

In the case of `CCOC(=O)CCCc1nc2cc(N(CCCl)CCCl)ccc2n1C` [BM1EE, BENDA ethyl ester], the IC50 in [1] was 6.1 µM.
Consider `Cn1c(CCCC(=O)OCCOCCOCCOCCNC(=O)CCC[C@@H]2SC[C@@H]3NC(=O)N[C@@H]32)nc2cc(N(CCCl)CCCl)ccc21` [Bio-BENDA, 13-Oxo-16-[(3aS,4S,6aR)-2-oxohexahydro-1H-thieno[3,4-d]imidazol-4-yl]-3,6,9-trioxa-12-azahexadecyl 4-{5-[bis(2-chloroethyl)amino]-1-methyl-1H-benzo[d]imidazol-2-yl}butanoate], for which, in [2], the “Binding to cellular STAT3 (band by streptavidin-HRP after anti-STAT3 IP)” value is given as “the STAT3 band was observed”. Further, the “Binding to cellular STAT1 (band by streptavidin-HRP after anti-STAT1 IP)” value in [3] is “no band”.
In the case of `C=C1C(=O)[C@]23C[C@H]1CC[C@H]2[C@@]12CO[C@]3(O)[C@@H](O)[C@@H]1C(C)(C)C=CC2=O` [Eriocalyxin B], in assay [4], the “Growth inhibition of MDA-MB-468 versus MDA-MB-453 cells” value was “inhibit the growth of MDA-MB-468 cells more than that of the MDA-MB-453 cells”.
For the molecule `O=[N+]([O-])c1ccc2c(c1)S(=O)(=O)C=C2` [Stattic], in assay [4], the “Growth inhibition of MDA-MB-468 versus MDA-MB-453 cells” value is listed as “inhibit the growth of MDA-MB-468 cells more than that of the MDA-MB-453 cells”.

B1: 5-carboxyfluorescein (FITC)-GpYLPQTV, labeled Phospho-Tyr peptide probe for STAT3 (peptide)
peptide: G[pY]LPQTV
modifications: not fully specified (N-terminus)
notes: the leading G is not the natural residue there; also called phosphotyrosine peptide; pTyr peptide; source: synthetic peptide (NippiBiomatrix Laboratory)
Regarding B1, the binding result in [5], in assay [6], in assay [7], in assay [8], in [9] and in assay [10] was “binds” in each case.
